Measured values from patent US20200299384A1.
Like-named read-outs stand apart in the source and are kept apart here.

Experiments:
[1] = molecular target: Cynomolgus Monkey CD3 epsilon protein (Cynomolgus monkey) (UniProt Q95LI5); test: ELISA, antigen coated on plate
[2] = molecular target: Human CD3 epsilon (CD3epsilon) protein (His Tag) (human) (UniProt P07766); test: ELISA, antigen coated on plate
[3] = molecular target: mouse CD3epsilon protein (mouse) (UniProt P22646); test: ELISA, antigen coated on plate
[4] = molecular target: human CD3 expressed on cells (Jurkat cells; human CD4 T cells) (human) (UniProt P07766); test: flow cytometry on Jurkat cells
[5] = molecular target: human CD3 expressed on cells (Jurkat cells; human CD4 T cells) (human) (UniProt P07766); test: flow cytometry on human CD4 T cells
[6] = molecular target: human CD3 expressed on cells (Jurkat cells; human CD4 T cells) (human) (UniProt P07766); test: flow cytometry on Jurkat cells, one site saturation fit
[7] = molecular target: human CD3 expressed on cells (Jurkat cells; human CD4 T cells) (human) (UniProt P07766); test: as above; remark: listed apart in the source

Chain of Human CD3 epsilon (CD3epsilon) protein (His Tag) (human) (P07766 23-126): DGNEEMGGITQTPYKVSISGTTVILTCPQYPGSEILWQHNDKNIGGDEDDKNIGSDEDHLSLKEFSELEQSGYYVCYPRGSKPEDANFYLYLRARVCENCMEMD
Chain of human CD3 expressed on cells (Jurkat cells; human CD4 T cells) (human) (P07766 23-207): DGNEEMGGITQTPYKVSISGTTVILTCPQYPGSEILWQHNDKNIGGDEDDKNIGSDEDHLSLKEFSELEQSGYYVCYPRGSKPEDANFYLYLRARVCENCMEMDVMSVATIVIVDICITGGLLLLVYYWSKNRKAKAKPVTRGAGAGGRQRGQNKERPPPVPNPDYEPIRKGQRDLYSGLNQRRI
Chain of Cynomolgus Monkey CD3 epsilon protein (Cynomolgus monkey) (Q95LI5 22-117 limits assumed): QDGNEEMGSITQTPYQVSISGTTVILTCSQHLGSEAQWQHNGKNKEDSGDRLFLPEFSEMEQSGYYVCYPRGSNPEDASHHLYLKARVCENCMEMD
Chain of mouse CD3epsilon protein (mouse) (P22646 22-108 limits assumed): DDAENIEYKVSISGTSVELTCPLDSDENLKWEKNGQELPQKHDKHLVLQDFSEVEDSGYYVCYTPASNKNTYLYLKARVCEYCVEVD

Substance | ELISA A450 [1] [A450] | ELISA A450 [2] [A450] | ELISA A450 [3] [A450] | EC50 [4] [nM] | EC50 [5] [nM] | Best fit-Bmax [6] | Kd [6] [nM] | Best fit-Bmax [7] | Kd [7] [nM] | EC50 [2] [nM]
Benchmark antibody OKT3 | 0.052 | 0.048 | 0.24 | 0.2 | 0.202 | 9.41e-11 | 0.129 | 6.06e-12 | 0.0277 | –
Negative Control (Table 7) | 0.046 | 0.046 | 0.179 | – | – | – | – | – | – | –
WBP331-BMK1 (UCHT1) (antibody) | – | – | – | – | – | – | – | – | – | 0.186
